The source of these data is PMC9550759.

The test has as its target high-affinity binding sites and low-affinity sites for VEGF165 on the SK-MEL-28 cell line (human (endogenous in SK-MEL-28)). The test is described as follows: radioligand binding; radio-receptor assay with [125I]-labeled VEGF165 on SK-MEL-28 cells; two classes of sites; data not shown.

“Recombinant Human VEGF165 (from UniProt P15692-4 1-191) (ligand)” had a KD, high-affinity sites of 0.13 nM and a KD, low-affinity sites of 4.1 nM.
